Patent publication US20240218060A1

What was measured:
[1] = biological target: human neonatal Fc-receptor (FcRn) (human) (UniProt P55899); test: FcRn affinity chromatography
[2] = biological target: human neonatal Fc-receptor (FcRn) (human) (UniProt P55899); test: FcRn affinity chromatography, anti-HER2 antibody
[3] = biological target: human neonatal Fc-receptor (FcRn) (human) (UniProt P55899); test: FcRn affinity chromatography of a knobs-into-holes bispecific antibody
[4] = biological target: human neonatal Fc-receptor (FcRn) (human) (UniProt P55899); test: FcRn affinity chromatography, bispecific KiH antibody

human neonatal Fc-receptor (FcRn) (human), sequence (P55899 24-297 limits assumed, chain 1 of 2): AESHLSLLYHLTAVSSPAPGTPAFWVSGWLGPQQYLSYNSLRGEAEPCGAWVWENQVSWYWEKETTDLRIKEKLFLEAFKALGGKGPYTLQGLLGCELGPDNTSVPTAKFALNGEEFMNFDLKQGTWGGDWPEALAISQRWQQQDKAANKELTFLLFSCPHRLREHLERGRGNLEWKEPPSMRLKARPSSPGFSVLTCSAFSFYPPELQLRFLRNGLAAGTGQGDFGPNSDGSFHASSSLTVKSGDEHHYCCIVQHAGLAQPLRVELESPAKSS
human neonatal Fc-receptor (FcRn) (human), sequence (P61769 21-119 limits assumed, chain 2 of 2, further chain): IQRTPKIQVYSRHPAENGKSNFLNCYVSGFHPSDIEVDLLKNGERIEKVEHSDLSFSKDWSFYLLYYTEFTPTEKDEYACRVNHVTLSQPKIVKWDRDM

With “IgG1 Fc-region molecule with L234A/L235A/P329G and Y436A (symmetric)” as the substance, how does the FcRn-affinity column retention time [1] read?
Its FcRn-affinity column retention time is 41.3 min.

anti-HER2 antibody, symmetric E258H was tested. Which retention time on FcRn affinity column [2] did it give?
Its retention time on FcRn affinity column is 45.6 min.

For anti-HER2 antibody, symmetric E430H, which retention time on FcRn affinity column [2] is on record?
The retention time on FcRn affinity column was 46.4 min.

How did the retention time on FcRn affinity column [2] turn out when anti-HER2 antibody, symmetric K288E was run?
Its retention time on FcRn affinity column is 45.2 min.

With anti-HER2 antibody, symmetric K290H as the substance, how does the retention time on FcRn affinity column [2] read?
Its retention time on FcRn affinity column is 46.2 min.

How did the retention time on FcRn affinity column [2] turn out when anti-HER2 antibody, symmetric K317H was run?
Its retention time on FcRn affinity column is 46.3 min.

anti-HER2 antibody, symmetric L309H was tested. Which retention time on FcRn affinity column [2] did it give?
Its retention time on FcRn affinity column is 45.5 min.

How did the retention time on FcRn affinity column [2] turn out when anti-HER2 antibody, symmetric N434H was run?
The retention time on FcRn affinity column was 52 min.

With anti-HER2 antibody, symmetric Q311H as the substance, how does the retention time on FcRn affinity column [2] read?
Its retention time on FcRn affinity column is 46.3 min.

For anti-HER2 antibody, symmetric R255D, which retention time on FcRn affinity column [2] is on record?
Its retention time on FcRn affinity column is 41.4 min.

Which retention time on FcRn affinity column [2] does the source give for anti-HER2 antibody, symmetric T256H here?
Its retention time on FcRn affinity column is 46 min.

anti-HER2 antibody, wild-type was tested. Which retention time on FcRn affinity column [2] did it give?
Its retention time on FcRn affinity column is 46.3 min.

For “bispecific antibody (knobs-into-holes), first chain I253A/H310A/H435A, second chain H310A”, which RT (Min) on the FcRn affinity column [3] is on record?
Its RT (Min) on the FcRn affinity column is 0 min.

How did the RT (Min) on the FcRn affinity column [3] turn out when “bispecific antibody (knobs-into-holes), first chain I253A/H310A/H435A, second chain H435A” was run?
The RT (Min) on the FcRn affinity column was 0 min.

“bispecific antibody (knobs-into-holes), first chain I253A/H310A/H435A, second chain I253A/H310A/H435A” was tested. Which RT (Min) on the FcRn affinity column [3] did it give?
The RT (Min) on the FcRn affinity column was 0 min.

How did the retention time on FcRn affinity column [4] turn out when “bispecific antibody (knobs-into-holes), one chain with H310A” was run?
Its retention time on FcRn affinity column is 48.4 min.

What about the RT (Min) on the FcRn affinity column [3] of the same substance?
The RT (Min) on the FcRn affinity column was 48.4 min.

For “bispecific antibody (knobs-into-holes), one chain with H310A/H433A/Y436A”, which retention time on FcRn affinity column [4] is on record?
The retention time on FcRn affinity column was 46.7 min.

How did the retention time on FcRn affinity column [4] turn out when “bispecific antibody (knobs-into-holes), one chain with H435A” was run?
Its retention time on FcRn affinity column is 48.8 min.

What about the RT (Min) on the FcRn affinity column [3] of the same substance?
The RT (Min) on the FcRn affinity column was 48.8 min.

What does the source list for “bispecific antibody (knobs-into-holes), one chain with I253A”?
retention time on FcRn affinity column [4]: 48.8 min; RT (Min) on the FcRn affinity column [3]: 48.8 min

How did the retention time on FcRn affinity column [4] turn out when “bispecific antibody (knobs-into-holes), one chain with L251D/L314D/L432D” was run?
Its retention time on FcRn affinity column is 46.3 min.

For “bispecific antibody (knobs-into-holes), one chain with M252Y/S254T/T256E”, which retention time on FcRn affinity column [4] is on record?
Its retention time on FcRn affinity column is 56.2 min.
